Patent US20100158926A1
Where “and” joins values, the source holds several entries; their conditions need not be identical. Equal entries are not always repeated.

B1: monoclonal antibody 1.18.1 (antibody, V domains shown)
VH: QVQLVESGGGVVQPGRSLRLSCAASGFTFSSYGMHWVRQAPGKGLEWVAVIWYDRSNKYYADSVKGRFTISRDNSKNTLYLQMDSLRAEDTAVYYCAGGRSRGAFDYWGQGTLVTVSS
VL: DIQMTQSPSSLSASVGDRVTITCRASQGIRNYLAWFQQKPGKAPKSLIYAASSLQSGVPSTFSGSGSGTHFTLTISSLQPEDFASYFCQQYEIYPLTFGGGTKVEIK
B2: monoclonal antibody 1.20 (antibody, V domains shown)
VH: QLQLQESGPGLVKPSETLSLTCTVSGGSISSSNYYWGWIRQPPGKGLEWIGTIYYTGSTYYNPSLKSRVTISVDTSKNQFSLKLSSVTAADTAVYYCARHHWVFDYWGQGTLVTVSS
VL: DIQMTQSPSSVSASVGDRVTITCRASQGISSWLAWYQQKPGKAPKLLIYAASSLQSGVPSRFSGSGSGTDFTLTISSLQPEDFATYYCQRTNSFPRTFGQGTKVEIK

Columns and labels:
[1] = molecular target: human ErbB2, full length, on cells (B300.19/hErbB2 clone #44; MCF7; BT474; SKBR3) (human)
[2] = molecular target: human ErbB2, full length, on cells (B300.19/hErbB2 clone #44; MCF7; BT474; SKBR3) (human); remark: listed apart in the source
[3] = molecular target: human ErbB2, full length, on cells (B300.19/hErbB2 clone #44; MCF7; BT474; SKBR3) (human); remark: listed apart in the source
[4] = molecular target: human ErbB2, full length, on cells (B300.19/hErbB2 clone #44; MCF7; BT474; SKBR3) (human); remark: listed apart in the source
[5] = molecular target: human ErbB2, full length, on cells (B300.19/hErbB2 clone #44; MCF7; BT474; SKBR3) (human); remark: listed apart in the source
[6] = molecular target: human ErbB2 ECD-myc/His fusion protein (human); test: SPR, high resolution Biacore T100; mAb captured on goat anti-human IgG, hHer-2(ECD)cMyc injected; 1:1 fit
[7] = molecular target: human ErbB2 ECD-myc/His fusion protein (human); test: SPR, medium resolution Biacore 2000; mAb captured on goat anti-human IgG, ErbB2(ECD)-cMyc/His injected; 1:1 fit
[8] = molecular target: human ErbB2 ECD-myc/His fusion protein (human); test: limited antigen ELISA, 31 ng/ml antigen coated, supernatant 1:25, OD 450 nm
[9] = molecular target: human ErbB2, full length, on cells (B300.19/hErbB2 clone #44; MCF7; BT474; SKBR3) (human); remark: listed apart in the source

Row | Molecule | % inhibition @36 µg/ml, SKBR3 cell proliferation [1] | EC50 (ng/ml), inhibition of SKBR3 cell proliferation [1] | N1 % Inhibition @40 µg/ml, BT474 cell proliferation [2] | N1 EC50 (ng/ml), inhibition of BT474 cell proliferation [2] | N2 EC50 (ng/ml), inhibition of BT474 cell proliferation [2] | EC50 (ng/ml), inhibition of Heregulin-induced MCF7 cell proliferation [3] | % Inhibition @10 µg/ml (n1), ErbB2 phosphorylation in BT474 cells at 48 hours [4] | EC50 (ng/ml) n1, inhibition of Heregulin-induced ErbB2 phosphorylation in MCF7 cells [5] | EC50 (ng/ml) n2, inhibition of Heregulin-induced ErbB2 phosphorylation in MCF7 cells [5] | % Inhibition @10 µg/ml, Heregulin-induced MCF7 cell proliferation [3] | Kd [6] | Kd [7] | koff [7] | kon [7] | LA at 31 ng/ml [8] | 24 hr pTyr inhibition % (line 1*18) [9] | 24 hr pTyr inhibition % (line 1*19) [9] | 24 hr pTyr inhibition % (line 1*20) [9]
1 | hIgG1 control antibody | 2% | > 36000 ng/mL | -2% | > 40000 ng/mL | > 40000 ng/mL | – | – | – | – | – | – | – | – | – | – | – | – | –
2 | Herceptin® (antibody) | – | – | – | – | – | > 10000 ng/mL | 5% | > 10000 ng/mL | > 10000 ng/mL | – | – | – | – | – | – | – | – | –
3 | chimeric anti-hErbB2 antibody 2C4 | – | > 36000 ng/mL | -9% | > 40000 ng/mL | 4750 ng/mL | 404 ng/mL | 10% | 43.6 ng/mL | 14.6 ng/mL | 90% | 3.2 nM | – | – | – | – | – | – | –
4 | B1 | 46% | 26.3 ng/mL | 34% | 38.1 ng/mL | 28.2 ng/mL | 415 ng/mL | 24% | 4.2 ng/mL | 10.8 ng/mL | 94% | – | 3 nM | 0.000302 s⁻¹ | 100000 M⁻¹ s⁻¹ | 3.03 OD | 96% | – | –
5 | B2 | 49% | 25.2 ng/mL | 40% | 85.3 ng/mL | 12.8 ng/mL | 770 ng/mL | 21% | 15.5 ng/mL | 17.4 ng/mL | 100% | – | 3.6 nM | 0.000344 s⁻¹ | 95000 M⁻¹ s⁻¹ | 2.84 OD and 1.77 OD | – | 97% | 96%
